Test results as given in patent publication US20120195913A1 (Novartis, published 2012).

T1: BAFFR:Fc fusion protein (human, UniProt Q96RJ3 1-78, biotinylated in the competition ELISA)
T1 construct: Bought reagent; also called human BAFFR:Fc; bio-BAFFR:Fc; not shown: Fc part of the bought fusion protein (Alexis / Axxora)
T1 sequence: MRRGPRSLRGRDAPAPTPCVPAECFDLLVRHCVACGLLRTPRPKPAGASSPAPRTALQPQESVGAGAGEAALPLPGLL

T2: human BAFF receptor (BAFFR) (human, UniProt Q96RJ3 1-184)
T2 sequence: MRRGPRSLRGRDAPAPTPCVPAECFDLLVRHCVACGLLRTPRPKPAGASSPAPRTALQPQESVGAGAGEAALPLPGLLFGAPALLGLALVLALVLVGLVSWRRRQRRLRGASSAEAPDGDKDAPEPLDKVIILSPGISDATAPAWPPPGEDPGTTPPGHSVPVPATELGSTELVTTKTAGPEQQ

T3: recombinant BCMA Fc-fusion protein (UniProt Q02223 1-54, limits assumed)
T3 construct: not shown: Fc part
T3 sequence (looked up): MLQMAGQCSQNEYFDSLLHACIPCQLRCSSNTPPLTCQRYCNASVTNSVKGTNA

T4: BCMA on transfected HEK293 cells (UniProt Q02223 1-184, limits assumed)
T4 construct: whole, on cells
T4 sequence (looked up): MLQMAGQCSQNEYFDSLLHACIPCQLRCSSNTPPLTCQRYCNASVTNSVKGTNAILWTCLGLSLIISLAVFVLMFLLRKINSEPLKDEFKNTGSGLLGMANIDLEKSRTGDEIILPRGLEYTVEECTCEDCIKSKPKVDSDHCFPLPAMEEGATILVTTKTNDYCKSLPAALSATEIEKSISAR


How the values were obtained:
BAFFR:Fc fusion protein = biological target: T1, BAFFR:Fc fusion protein; test: BLyS/BAFFR:Fc competition ELISA; antibody titrated, BLyS coated
Description: 96-well MaxiSorp plates are coated over night at 4° C. with human soluble BLyS. After coating, the wells were washed 4 times with PBS/0.05% Tween20 (PBST) and then blocked for 1 h at 37° C. with PBST containing 1% bovine serum albumin followed by 4 washing steps with PBST. Biotinylated human BAFFR:Fc fusion protein (Axxora) at 20 ng/ml was added and captured for 1 h at 37° C. together with increasing concentrations of anti-BAFFR antibodies. After another washing round, ExtrAvidin-Alkaline Phosphatase (Sigma) was added to the wells and incubated for 30 minutes at 37° C. The bound phosphatase was detected by adding a solution containing p-nitrophenyl phosphate in diethanolamin (Sigma). The color reaction was stopped after ca. 20 minutes with an equal volume of 2N sodium hydroxide and the absorbance was measured at 405 nm on a plate reader (SpectraMax 190, Molecular Devices).

[1] = biological target: T2, human BAFF receptor (BAFFR); test: cell-based or functional assay
[2] = biological target: T2, human BAFF receptor (BAFFR); test: FACS titration of Fab on transfected HEK293-hBAFFR cells
Description: (§1) The EC₅₀ of the Fabs is determined by Fab titration in FACS on transfected HEK293 cells as well as on Raji cells expressing endogenous BAFFR.

[3] = biological target: T2, human BAFF receptor (BAFFR); test: FACS titration of Fab on Raji cells (endogenous BAFFR)
Description: as §1

[4] = biological target: T2, human BAFF receptor (BAFFR); test: competition FACS on Raji cells; Fab titrated, competitor biotinylated hsBLyS
Description: The BAFFR-BLyS binding assay is performed using Raji cells expressing endogenous BAFFR. The BAFFR specific Fabs are used in final dilutions ranging from 40 to 0.001 nM. The diluted Fabs are incubated in 96-well plates with 5×10⁴ Raji cells per well for 1 h at 4° C. on a shaker. Then biotinylated hsBLyS is added in a final concentration of 25 ng/ml and the cells were incubated for 30 min at 4° C. on a shaker. The cells are washed twice with FACS buffer and then resuspended in phycoerythrin-conjugated Streptavidin (Dianova) which has been diluted 1:200 in FACS buffer. The staining is performed for one hour at 4° C. on a shaker. Finally the cells are washed twice with FAGS buffer, resuspended in FACS buffer and BLyS binding to cell surface BAFFR is detected via fluorescence cytometry in the FACSArray instrument (Becton Dickinson).
The IC50 values of the antibodies of the invention in a human Fab format are determined in a BAFFR-BLyS binding inhibition assay by Fab titration on Raji cells (FACS).

[5] = biological target: T3, recombinant BCMA Fc-fusion protein; test: ELISA titration on Fc-captured antigen
Description: (§2) 384-well MaxiSorp plates are coated over night at 4° C. with a goat anti-human IgG, Fc γ fragment specific capture antibody. After coating the wells were washed twice with PBS/0.05% Tween20 (PBST) and then blocked for 1 h at RT with PBST containing 5% milk powder followed by two washing steps with PBST. Recombinant BCMA and TACI Fc-fusion proteins are added and captured for 1 h at RT. Then the purified and diluted BAFFR specific Fabs are added and the plates are incubated for 1 h at RT. To detect the Fabs, an alkaline phosphatase (AP)-conjugated goat anti-human IgG, Fab specific is added and the plates are incubated for 1 h at RT. Following each incubation step the wells are washed five times with PBST. For the detection of the AP-conjugates, AttoPhos (Roche) is used according to the manufacturer's instructions. Fluorescence is measured using a TECAN Spectrafluor plate reader.
(§3) In ELISA the Fabs are titrated from 400 nM down to 0.005 nM on […] captured to a Maxisorp plate via an anti-human Fc antibody. Only MOR07342 and MOR07346 show some cross-reactivity to BCMA at high Fab concentrations >100 nM. In contrast MOR06654, MOR07347, MOR07348, MOR07349 show no binding to BCMA above background. A 1000-fold discrimination factor is met by all Fabs.

[6] = biological target: T3, recombinant BCMA Fc-fusion protein; test: ELISA on Fc-captured recombinant BCMA Fc-fusion
Description: as §2, §3

[7] = biological target: T4, BCMA on transfected HEK293 cells; test: FACS on BCMA-transfected HEK293 cells
Description: In FACS the following Fabs are analyzed on BCMA-transfected HEK293 cells and titrated from 1 μM down to 0.005 nM: MOR06654, MOR06743, MOR07342, MOR07347, MOR7348 and MOR07349. At 330 nM only MOR07342 show an elevated binding signal which is 2-fold over background. All other tested Fabs show no signal at this concentration.

| Binder | IC50 (BAFFR:Fc fusion protein) | B-cell proliferation Agonism EC50 [1] | B-cell proliferation Inhibition IC50 [1] | EC50 [2] | EC50 [3] | IC50 [4] | discrimination factor (BAFFR over BCMA) [5] | binding result [7] | binding result [6] |
| --- | --- | --- | --- | --- | --- | --- | --- | --- | --- |
| MOR06743 Fab (Fab, V domains shown, Human Fab format; also called MOR6743) VH: QVQLQQSGPGLVKPSQTLSLTCAISGDSVSSNSAAWGWIRQSPGRGLEWLGRIYYRSKWYNSYAVSVKSRITINPDTSKNQFSLQLNSVTPEDTAVYYCARYDWVPKIGVFDSWGQGTLVTVSS VL: DIVLTQSPATLSLSPGERATLSCRASQMIDLRYLSWYQQKPGQAPRLLIYGSSSRATGVPARFSGSGSGTDFTLTISSLEPEDFAVYYCQQLYSSPMTFGQGTKVEIK | 0.1 nM | > 187 nM | 2 nM |  |  |  |  |  |  |
| MOR07348 Fab (Fab, V domains shown, Human Fab format; also called MOR7348; MOR007348) VH: QVQLQQSGPGLVKPSQTLSLTCAISGDSVSSNSAAWGWIRQSPGRGLEWLGRIYYRSKWYNSYAVSVKSRITINPDTSKNQFSLQLNSVTPEDTAVYYCARYDWVPKIGVFDLWGQGTLVTVSS VL: DIVLTQSPATLSLSPGERATLSCRASQWIEAGYLSWYQQKPGQAPRLLIYGSSSRATGVPARFSGSGSGTDFTLTISSLEPEDFAVYYCQQLYSSPMTFGQGTKVEIK | 0.96 nM | > 187 nM | 2.9 nM | 0.24 nM | 0.12 nM | 0.2 nM | ≥ 1000 fold | no binding (tested: 1 µM) | no binding (tested: titrated from 400 nM down to 0.005 nM) |
| MOR07685 Fab (Fab, V domains shown) VH: QVQLQQSGPGLVKPSQTLSLTCAISGDSVSSNSAAWGWIRQSPGRGLEWLGRIYYRSKWYNSYAVSVKSRITINPDTSKNQFSLQLNSVTPEDTAVYYCARYQWVPKIGVFDSWGQGTLVTVSS VL: DIVLTQSPATLSLSPGERATLSCRASQMIDLRYLSWYQQKPGQAPRLLIYGSSSRATGVPARFSGSGSGTDFTLTISSLEPEDFAVYYCQQLYSSPMTFGQGTKVEIK |  |  |  |  |  | 0.12 nM |  |  |  |

Continued, in another order:

| IC50 (BAFFR:Fc fusion protein) | B-cell proliferation Agonism EC50 [1] | B-cell proliferation Inhibition IC50 [1] | EC50 [2] | EC50 [3] | IC50 [4] | discrimination factor (BAFFR over BCMA) [5] | binding result [7] | Binder | binding result [6] |
| --- | --- | --- | --- | --- | --- | --- | --- | --- | --- |
| 0.14 nM | > 187 nM | 0.9 nM | 0.18 nM | 0.06 nM | 0.09 nM | ≥ 1000 fold |  | MOR07342 Fab (Fab, V domains shown, Human Fab format) VH: QVQLQQSGPGLVKPSQTLSLTCAISGDSVSSNSAAWGWIRQSPGRGLEWLGRIYYRSKWYNNYAVSVKSRITINPDTSKNQFSLQLNSVTPEDTAVYYCARYKWVPKIGVFDSWGQGTLVTVSS VL: DIVLTQSPATLSLSPGERATLSCRASQMIDLRYLSWYQQKPGQAPRLLIYGSSSRATGVPARFSGSGSGTDFTLTISSLEPEDFAVYYCQQFYSSPLTFGQGTKVEIK |  |
| 0.1 nM | > 187 nM | 1.3 nM | 0.08 nM |  | 0.02 nM | ≥ 1000 fold |  | MOR07347 Fab (Fab, V domains shown, Human Fab format) VH: QVQLQQSGPGLVKPSQTLSLTCAISGDSVSSNSAAWGWIRQSPGRGLEWLGRIYYRSKWYNSYAVSVKSRITINPDTSKNQFSLQLNSVTPEDTAVYYCARYQWVPKIGVFDSWGQGTLVTVSS VL: DIVLTQSPATLSLSPGERATLSCRASQEILPEYLSWYQQKPGQAPRLLIYGSSSRATGVPARFSGSGSGTDFTLTISSLEPEDFAVYYCQQFYSSPLTFGQGTKVEIK | no binding (tested: titrated from 400 nM down to 0.005 nM) |
| 0.44 nM | > 187 nM | 3.5 nM | 0.24 nM | 0.13 nM | 0.17 nM | ≥ 1000 fold | no binding (tested: 1 µM) | MOR07349 Fab (Fab, V domains shown, Human Fab format) VH: QVQLQQSGPGLVKPSQTLSLTCAISGDSVSSNSAAWGWIRQSPGRGLEWLGRIYYRSKWWNDYAVSVKSRITINPDTSKNQFSLQLNSVTPEDTAVYYCARYDWVPKIGVFDGWGQGTLVTVSS VL: DIVLTQSPATLSLSPGERATLSCRASQMIDLRYLSWYQQKPGQAPRLLIYGSSSRATGVPARFSGSGSGTDFTLTISSLEPEDFAVYYCQQFYSSPLTFGQGTKVEIK | no binding (tested: titrated from 400 nM down to 0.005 nM) |
